Data taken from paper PMC8637920, “Structure, Function and Regulation of a Second Pyruvate Kinase Isozyme in Pseudomonas aeruginosa” (Frontiers in Microbiology, 2021).

Experiments:
PykFPA = target: T1, PykFPA (Pseudomonas aeruginosa, UniProt Q9I3L4); assay: lactate dehydrogenase-coupled assay, activation; type: biochemical; conditions: K-type activator (shifts S0.5 of PEP), 2 mM ADP, allosteric
T1 construct: gene pykF; full-length, 477 residues, untagged, from pET-19m in E. coli BL21(DE3)
T1 sequence (Q9I3L4 1-477): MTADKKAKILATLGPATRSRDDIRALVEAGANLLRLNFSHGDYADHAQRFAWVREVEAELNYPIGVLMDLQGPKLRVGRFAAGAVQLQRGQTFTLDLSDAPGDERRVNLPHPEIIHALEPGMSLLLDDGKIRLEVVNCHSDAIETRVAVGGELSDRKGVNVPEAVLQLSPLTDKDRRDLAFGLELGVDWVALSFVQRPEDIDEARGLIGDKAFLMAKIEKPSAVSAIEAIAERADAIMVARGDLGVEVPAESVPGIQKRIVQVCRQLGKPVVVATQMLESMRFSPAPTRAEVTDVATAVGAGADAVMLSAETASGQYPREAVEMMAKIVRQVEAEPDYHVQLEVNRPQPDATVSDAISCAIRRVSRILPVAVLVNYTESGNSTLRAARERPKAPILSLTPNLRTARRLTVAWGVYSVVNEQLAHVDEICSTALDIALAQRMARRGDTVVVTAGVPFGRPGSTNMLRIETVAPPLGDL

[1] = target: the molecule itself; assay: AUC; purified PykFPA in solution; carried out as previously described (Abdelhamid et al., 2019); analysed with SEDFIT and SEDNTERP
[2] = substrate: C=C(OP(=O)(O)O)C(=O)O; assay: lactate dehydrogenase-coupled assay; type: biochemical, Pseudomonas aeruginosa; conditions: 2 mM ADP; Mg2+; no regulator added; sigmoidal
[3] = substrate: Nc1ncnc2c1ncn2[C@@H]1O[C@H](COP(=O)(O)OP(=O)(O)O)[C@@H](O)[C@H]1O; assay: lactate dehydrogenase-coupled assay; type: biochemical, Pseudomonas aeruginosa; conditions: 5 mM PEP; Mg2+; no regulator added; hyperbolic

Q: For O=C(CO)[C@H](O)[C@H](O)COP(=O)(O)O [ribulose 5-phosphate], which “lactate dehydrogenase-coupled assay, activation” value (PykFPA; 0.5 mM) is on record?
A: Its value is “ribulose 5-phosphate (RL5P), and R5P]”.

Q: For O=C(CO)[C@@H](O)[C@H](O)COP(=O)(O)O [xylulose 5-phosphate], which “lactate dehydrogenase-coupled assay, activation” value (PykFPA; 0.5 mM) is on record?
A: Its value is “strongly activated by metabolites from the non-oxidative PPP [(xylulose 5-phosphate (X5P)”.

Q: With O=C[C@H](O)COP(=O)(O)O [glyceraldehyde 3-phosphate] as the molecule, how does the “lactate dehydrogenase-coupled assay, activation” value (PykFPA; 1 mM) read?
A: Its value is “to a lesser extent, by the EDP intermediates G6P and G3P”.

Q: How did the “lactate dehydrogenase-coupled assay, activation” value (PykFPA; 0.15 mM) turn out when O=P(O)(O)OC[C@H]1OC(O)[C@H](O)[C@@H]1O (stereo partly shown) [ribose 5-phosphate] was run?
A: Its value is “ribulose 5-phosphate (RL5P), and R5P]”.

Q: For Nc1ncnc2c1ncn2[C@@H]1O[C@H](COP(=O)(O)O)[C@@H](O)[C@H]1O [adenosine 5′-monophosphate], which “lactate dehydrogenase-coupled assay, activation” value (PykFPA; 1 mM) is on record?
A: The value was “PykFPA (but not PykAPA) was activated by AMP”.

Q: How did the “lactate dehydrogenase-coupled assay, activation” value (PykFPA; 1 mM) turn out when O=P(O)(O)OC[C@H]1OC(O)[C@H](O)[C@@H](O)[C@@H]1O (stereo partly shown) [glucose 6-phosphate] was run?
A: The value was “to a lesser extent, by the EDP intermediates G6P and G3P”.

B1: Pseudomonas aeruginosa pyruvate kinase isozyme PykF (PykFPA) (enzyme, UniProt Q9I3L4 1-477, looked up)
chain: T1 sequence (Q9I3L4 1-477)
notes: Pyruvate kinase PykF of Pseudomonas aeruginosa (PA1498), untagged full-length protein, 477 residues, monomer 51.5 kDa; also called PA1498; source: E. coli BL21 (DE3) with plasmid pET-19m (pykF), purified
Q: With B1 as the molecule, how does the “stoichiometry N” value [1] read?
A: Its value is 4.

Q: And the K0.5 [2]?
A: Its K0.5 is 1.03 ± 0.01 mM.

Q: What about the kcat [2] of the same molecule?
A: The kcat was 379 s⁻¹.

Q: What about the kcat/Km [2] of the same molecule?
A: Its kcat/Km is 367000 M⁻¹ s⁻¹.

Q: And the K0.5 [3]?
A: The K0.5 was 0.11 ± 0.01 mM.

Q: And the kcat [3]?
A: The kcat was 433 s⁻¹.

Q: What about the kcat/Km [3] of the same molecule?
A: Its kcat/Km is 3.94e+06 M⁻¹ s⁻¹.
